# Patent US11078259B2, “Methods and compositions for promoting thermogenic potential” (Joslin Diabetes Center, Inc., priority 2015, dated 2021)
# B1: BMP7: Recombinant human BMP7, an inducer of brown adipogenesis (protein, UniProt P18075 293-431, looked up)
# Bone morphogenetic protein 7: STGSKQRSQNRSKTPKNQEALRMANVAENSSSDQRQACKKHELYVSFRDLGWQDWIIAPEGYAAYYCEGECAFPLNSYMNATNHAIVQTLVHFINPETVPKPCCAPTQLNAISVLYFDDSSNVILKKYRNMVVRACGCH
# Experiments:
# hWAT-SVF clones = experiment: Clonal analysis: UCP1-luciferase response to BMP7 pretreatment; format: cell-based, human; settings: for clones UCP1(+), BMP7 Resp(+) / clones UCP1 (−), BMP7 Resp(+) / clones UCP1(−), BMP7 Resp(−): hWAT-SVF clones
# Description: (§1) FIG. 8 depicts clonal analysis of human brown and white fat progenitors. Specifically, the strategy of clonal analysis of hWAT-SVF and hBAT-SVF progenitors is shown as a dendrogram. 152 clones from hWAT-SVF and 128 clones from hBAT-SVF were derived by limiting dilution from 4 subjects. Adipogenic capacity was determined by Nile red staining and UCP1 level was determined by luciferase activity on day 18. Detailed selection criteria are described in FIGS. 9 and 10. Selected highly adipogenic clones (adipogenic++) were pre-treated with 3.3 nM BMP7 for 6 days and then differentiated into mature adipocytes in a 96-well plate. Luciferase activity was measured on day 18 and divided into different levels (negative, Neg; low; medium, Med; high) after normalized to protein content. The positive response (+) to BMP7 pretreatment was defined by more than 1.5-fold increase of luciferase activity between BMP7-pretreated and vehicle groups.
# (§2) Immortalized progenitor cells were plated and grown in DMEM/H medium supplemented with 10% FBS (day 0). For adipocyte differentiation, cell were grown for 6 days until reaching confluence (day 6), and then treated with the adipogenic induction medium as described above for 12 days (termed as day 18). To further stimulate thermogenic program, fully differentiated cells were incubated with 10 μM forskolin for 4 h. For BMPs and FGF21 pre-treatment, recombinant BMP7 (3.3 nM), BMP8 (3.3 nM), or FGF21 (50 nM) were added to undifferentiated cells in medium containing insulin (0.5 μM), T3 (2 nM) and 2% FBS for 6 days followed by adipogenic induction for 12 days. For BMPs and FGF21 post-treatment, fully differentiated adipocytes at day 18 were treated with recombinant BMP7 (3.3 nM), BMP8 (3.3 nM), or FGF21 (50 nM) in medium containing insulin (0.5 μM), T3 (2 nM) and 2% FBS for 2 days.
# (§3) In vitro luciferase assays were performed using luciferase assay kits (Promega, Madison, Wis.) according to the manufacturer's instructions. Remove culture medium from differentiated adipocytes and wash cells in PBS. Dispense an appropriate volume of 1× lysis reagent (Passive Lysis Buffer) into each culture well. Scrape attached cells from the wells, and transfer the cell lysates into white 96-well plate (Corning Inc., Tewksbury, Mass.) for detection of the bioluminescence signal using luminometer plate reader (BioTek Instruments, Inc., Winooski, Vt.). Use a reagent injector to dispense 100 μL of Luciferase assay buffer with substrate and 100 μL of Stop & Glo Reagent. And perform a 2-second pre-measurement delay, followed by a 10-second measurement period for each reporter assay. Luciferase activity data were normalized to protein content.
# (§4) To derive subclones of immortalized human white and brown progenitors with hUCP1-promoter-Luc/GFP reporter, limiting dilution of cells into 96-well plates was performed as previously described (Tchkonia, T., et al. Diabetes 55, 2571-2578, 2006). Briefly, cells were plated at 50 cells/96-well plate in DMEM/H containing 10% FBS. After 2 weeks, colonies were evident. Cells at approximately 80% confluence were trypsinized and further propagated in 48-well, then 12-well and finally 6-well plate. 152 clonal lines originated from neck superficial fat depot and 128 clonal lines from deep fat were selected for adipogenic potential after induction. The highly adipogenic clonal lines were selected for further analysis (67 clonal white fat progenitor lines; 90 clonal brown fat progenitor lines).
# hBAT-SVF clones = experiment: as above; format: cell-based, human
# Description: as §1, §2, §3, §4
molecule,measurement,setting,value
B1,"clones UCP1(+), BMP7 Resp(+)",hWAT-SVF clones; Subject 1,0/32
same,"clones UCP1 (−), BMP7 Resp(+)",hWAT-SVF clones; Subject 1,0/32
same,"clones UCP1(−), BMP7 Resp(−)",hWAT-SVF clones; Subject 1,32/32
same,"clones UCP1(+), BMP7 Resp(+)",hWAT-SVF clones; Subject 2,0/20
same,"clones UCP1 (−), BMP7 Resp(+)",hWAT-SVF clones; Subject 2,0/20
same,"clones UCP1(−), BMP7 Resp(−)",hWAT-SVF clones; Subject 2,20/20
same,"clones UCP1(+), BMP7 Resp(+)",hWAT-SVF clones; Subject 3,1/12
same,"clones UCP1 (−), BMP7 Resp(+)",hWAT-SVF clones; Subject 3,0/12
same,"clones UCP1(−), BMP7 Resp(−)",hWAT-SVF clones; Subject 3,11/12
same,"clones UCP1(+), BMP7 Resp(+)",hWAT-SVF clones; Subject 4,0/3
same,"clones UCP1 (−), BMP7 Resp(+)",hWAT-SVF clones; Subject 4,0/3
same,"clones UCP1(−), BMP7 Resp(−)",hWAT-SVF clones; Subject 4,3/3
same,clones that could respond to BMP7 pretreatment,"hWAT-SVF clones; highly adipogenic hWAT-SVF clones, response = more than 1.5-fold increase of luciferase activity",1%
same,clones that could respond to BMP7 stimulation,hBAT-SVF clones; hBAT-SVF clones from Subject 2 and Subject 3,more than 60%
same,"clones UCP1(+), BMP7 Resp(+)","hBAT-SVF clones; hBAT-SVF clones, Subject 1",10/41
same,"clones UCP1(+), BMP7 Resp(−)","hBAT-SVF clones; hBAT-SVF clones, Subject 1",29/41
same,"clones UCP1(+), BMP7 Resp(−), percent","hBAT-SVF clones; hBAT-SVF clones, Subject 1",(71%)
same,"clones UCP1(−), BMP7 Resp(−)","hBAT-SVF clones; hBAT-SVF clones, Subject 1",2/41
same,"clones UCP1(+), BMP7 Resp(+)","hBAT-SVF clones; hBAT-SVF clones, Subject 2",10/15
same,"clones UCP1(+), BMP7 Resp(+), percent","hBAT-SVF clones; hBAT-SVF clones, Subject 2",(67%)
same,"clones UCP1(+), BMP7 Resp(−)","hBAT-SVF clones; hBAT-SVF clones, Subject 2",5/15
same,"clones UCP1(−), BMP7 Resp(−)","hBAT-SVF clones; hBAT-SVF clones, Subject 2",0/15
same,"clones UCP1(+), BMP7 Resp(+)","hBAT-SVF clones; hBAT-SVF clones, Subject 3",9/15
same,"clones UCP1(+), BMP7 Resp(+), percent","hBAT-SVF clones; hBAT-SVF clones, Subject 3",(60%)
same,"clones UCP1(+), BMP7 Resp(−)","hBAT-SVF clones; hBAT-SVF clones, Subject 3",3/15
same,"clones UCP1(−), BMP7 Resp(−)","hBAT-SVF clones; hBAT-SVF clones, Subject 3",3/15
same,"clones UCP1(+), BMP7 Resp(+)","hBAT-SVF clones; hBAT-SVF clones, Subject 4",5/19
same,"clones UCP1(+), BMP7 Resp(−)","hBAT-SVF clones; hBAT-SVF clones, Subject 4",14/19
same,"clones UCP1(+), BMP7 Resp(−), percent","hBAT-SVF clones; hBAT-SVF clones, Subject 4",(74%)
same,"clones UCP1(−), BMP7 Resp(−)","hBAT-SVF clones; hBAT-SVF clones, Subject 4",0/19
same,clones that could be induced by BMP7 pretreatment,"hBAT-SVF clones; hBAT-SVF clones, all subjects, response = more than 1.5-fold increase of luciferase activity",up to 37%
same,response to BMP7 pretreatment,hBAT-SVF clones; majority of the hBAT-SVF clones from Subject 1 and Subject 4,not responsive
